Reference: US20240400621A1, “PEPTIDES FOR METABOLIC SYNDROME” (ALPARIS, S.A. de C.V., priority 2021, published 2024)

Experiments:
[1] = target: human Toll-like receptor 2 (hTLR2) on HEK-Blue hTLR2 cells (human (printed as hTLR2), UniProt O60603 21-784); assay: cell-based or functional assay
mice fed a high-fat diet [2] = assay: Glucose tolerance test (GTT) in mice fed a high-fat diet; type: in vivo, mice (C57BL/6JN); settings: 12 weeks; intragastric daily; SEQ ID NO: 3 2.5 μg/mouse, SEQ ID NO: 2 0.6 or 0.2 μg/mouse
Description: (§1) For all the in vivo testing, male mice of the C57BL/6JN strain between 8 to 10 weeks of age were used, housed in groups of 3 to 5 mice per cage with food and water ad libitum in ventilated racks, and whose microbiota were unified for 4 weeks.
(§2) The mice received either 200 μL of a phosphate buffer solution (PBS) at pH 7.5 (as a vehicle), or 200 μL of the PBS solution, with each of the intragastric treatments daily for 12 weeks. They were fed either a Normal Diet (DN, Harlan, Teklad 2018SX) with 18% of the calories coming from fat, or a High-Fat Diet (DAG, Research Diets, D12491), with 60% of the calories coming from fat. […]
The mice were subjected to fasting for 6 hours, and the baseline glucose values in the blood were determined using glucose test strips and a glucometer (Roche's ACCU-CHECK ACTIVE).
Next, the mice received an intraperitoneal injection of 1.8 mg of glucose per gram of body weight, and the blood glucose values were recorded at 15, 30, 60, and 120 minutes after administration.
FIGS. 19A and 19B show the area under the curve (AUC) of the glucose tolerance test of the mice, measured at week 0 and 12.

mice fed a high-fat diet [3] = assay: Insulin resistance test (PRI) in mice fed a high-fat diet; type: in vivo, mice (C57BL/6JN); settings: 12 weeks; intragastric daily; SEQ ID NO: 3 2.5 μg/mouse, SEQ ID NO: 2 0.6 or 0.2 μg/mouse
Description: as §1, §2
The mice were subjected to fasting for 6 hours and the baseline glucose values were determined, as described above. Subsequently, the mice received an intraperitoneal injection of 1 mU of insulin per gram of body weight, and blood glucose values were recorded at 15, 30, 60, and 120 minutes after administration. The area under the curve (AUC) of the insulin resistance test was calculated considering the glucose decrease between time T0 and T15 using the absolute glucose values, as shown in FIGS. 20A and 20B.

insulin = assay: Insulin levels (secretion in response to glucose) in mice fed a high-fat diet; type: in vivo, mice (C57BL/6JN); settings: 12 weeks; versus DAG group
Description: as §1
(§3) The mice received either 200 μL of a phosphate buffer solution (PBS) at pH 7.5 (as a vehicle), or 200 μL of the PBS solution, with each of the intragastric treatments daily for 12 weeks. They were fed either a Normal Diet (DN, Harlan, Teklad 2018SX) with 18% of the calories coming from fat, or a High-Fat Diet (DAG, Research Diets, D12491), with 60% of the calories coming from fat.
(§4) All the mice were randomly divided into five experimental groups in order to study the effect of SEQ ID NO: 3 and SEQ ID NO: 2 correctly: • Group 1—Mice with DN that received 200 μl of PBS intragastrically. • Group 2—Mice with DAG that received 200 μl of PBS intragastrically. • Group 3—Mice with DAG that received 200 μl of PBS with SEQ ID NO: 3 intragastrically at a dose of: 2.5 μg/mouse. • Group 4—Mice with DAG that received 200 μl of PBS with SEQ ID NO: 2 intragastrically at a dose of 0.6 μg/mouse (high dose). • Group 5—Mice with DAG that received 200 μl of PBS with SEQ ID NO: 2 intragastrically at a dose of 0.2 μg/mouse (low dose).
This means that the peptide SEQ ID NO: 3 improves insulin sensitivity, preventing insulin resistance from developing.

adipose tissue = assay: Cellular infiltrate / inflammatory process in adipose tissue of mice fed a high-fat diet; type: in vivo, mice (C57BL/6JN)
Description: as §1, §3, §4
(§5) To determine the effect of the peptides SEQ ID NO: 2 and SEQ ID NO: 3 in attenuating the inflammatory process in adipose tissue, the cellular infiltrate of the adipose tissue of the mice was quantified after they had been fed DAG.

IL-1B = assay: Circulating IL-1B levels in mice fed a high-fat diet; type: in vivo, mice (C57BL/6JN); settings: 12 weeks; versus DAG; including SEQ ID NO: 2 at low doses
Description: as §1, §2, §5

TNFα = assay: Circulating TNFα levels in mice fed a high-fat diet; type: in vivo, mice (C57BL/6JN); settings: 12 weeks; versus DAG; including SEQ ID NO: 2 at low doses
Description: as §1, §2, §5

IL-6 = IL-6 levels in mice fed a high-fat diet; type: in vivo, mice (C57BL/6JN); settings: 12 weeks; animals fed DAG
Description: as §1, §3, §4

leptin = assay: Leptin levels in mice fed a high-fat diet; type: in vivo, mice (C57BL/6JN); settings: 12 weeks; compared to mice fed only DAG
Description: as §1, §3
as §4, with “(low dose). […]” for “(low dose).”

adiponectin = assay: Adiponectin levels in mice fed a high-fat diet; type: in vivo, mice (C57BL/6JN); settings: 12 weeks; fall induced by DAG
Description: as §1, §3
as §4, with “(low dose). […]” for “(low dose).”

[4] = Aggregation during ultrafiltration / buffer change; type: physicochemical
From the text: The protein of SEQ ID NO. 1, expressed in recombinant form in this invention, contains a tag of six residues of histidine at the carboxyl terminal end, allowing it to be purified by immobilized metal cation affinity chromatography (IMAC). Purification was initially evaluated with the soluble fractions of the two strains that were used for recombinant production, obtained by enzymatic lysis and sonication. The first approach with the Ni-NTA Agarose resin allowed for the recovery of 6% of the SEQ ID NO. 1 with a purity of 50-80%. An FPLC Ákta Prime chromatographic system and an XK16/20 column packed with 13 mL of Chelating Sepharose Fast Flow-Ni^+2 resin were used for purification. A minimum imidazole concentration of 30 mM was defined in both the sample to be injected and the equilibrium buffer. Elution was performed with 500 mM imidazole at 6.5 mL/min, resulting in a minimum recovery of 80% of SEQ ID No. 1 with 82% purity. The ultrafiltration of the tangential flow of SEQ ID NO. 1 during the chromatography stage, in order to concentrate and change the buffer, negatively impacted protein quality. However, the dialysis of EQ ID NO.
However, the aggregation of SEQ ID NO. […] This was corroborated by the SDSPAGE analysis, in which the remaining protein in the soluble fraction presented fragments of lower molecular weight than that of SEQ ID NO. 1, but greater than 25 kDa. On the other hand, the precipitate turned out to be denatured SEQ ID NO. 1, but not degraded.
Finally, SEQ ID NO. 4 and SEQ ID NO.

Chain of human Toll-like receptor 2 (hTLR2) on HEK-Blue hTLR2 cells (O60603 21-784): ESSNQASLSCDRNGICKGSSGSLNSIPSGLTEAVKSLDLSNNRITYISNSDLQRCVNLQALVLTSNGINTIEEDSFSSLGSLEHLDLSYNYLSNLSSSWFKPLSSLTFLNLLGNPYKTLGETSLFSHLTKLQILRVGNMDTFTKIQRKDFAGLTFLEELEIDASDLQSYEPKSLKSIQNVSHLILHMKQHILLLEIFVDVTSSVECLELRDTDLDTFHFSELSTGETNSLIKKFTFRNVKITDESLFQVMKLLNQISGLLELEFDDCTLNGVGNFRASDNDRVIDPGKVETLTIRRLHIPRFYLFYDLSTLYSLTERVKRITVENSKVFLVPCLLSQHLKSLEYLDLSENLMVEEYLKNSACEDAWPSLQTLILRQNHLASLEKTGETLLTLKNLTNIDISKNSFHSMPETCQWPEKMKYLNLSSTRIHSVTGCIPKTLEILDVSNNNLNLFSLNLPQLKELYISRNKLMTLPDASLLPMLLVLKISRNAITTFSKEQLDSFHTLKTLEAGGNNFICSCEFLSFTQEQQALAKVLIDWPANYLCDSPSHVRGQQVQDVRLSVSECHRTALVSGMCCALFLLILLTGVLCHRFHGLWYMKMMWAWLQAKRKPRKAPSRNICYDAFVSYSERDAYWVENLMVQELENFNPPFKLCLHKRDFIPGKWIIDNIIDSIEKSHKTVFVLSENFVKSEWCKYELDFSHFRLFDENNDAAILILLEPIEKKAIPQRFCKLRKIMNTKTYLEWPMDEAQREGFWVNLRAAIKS

B1: peptide SEQ ID NO: 3 (carboxyl terminal domain of SEQ ID NO: 1) (peptide)
chain: QLPIETPANNPEESDEADQAPWTPMPLEIAFQGDRESVLKAMNAITGMQDYLFTVNSIRIRNERMMPPPIANPAAAKPAAAQPATGAASLTPADEAAAPAAPAIQQVIKPYMGKEQVFVQVSLNLVHFNQPKAQEPSED
With B1 the “EC50” value [1] was 25.9 nM, the “glucose tolerance (AUC of GTT) versus DAG group” value (mice fed a high-fat diet [2]) was “improved glucose tolerance” and the “insulin sensitivity (AUC of insulin resistance test) versus DAG group” value (mice fed a high-fat diet [3]) was “improve insulin sensitivity”. For the same molecule, the “insulin secretion in response to glucose administration” value (insulin) was “statistically significant reduction in insulin secretion”, the “cellular infiltrate of adipose tissue” value (adipose tissue; 12 weeks, versus DAG group) was “prevented the increase in cellular infiltrate induced by DAG” and the “inflammatory process in adipose tissue” value (adipose tissue; SEQ ID NO:2 in high or low doses) was “attenuate the inflammatory process in adipose tissue”. The “circulating levels of IL-1B” value (IL-1B) was “prevented the increase in the circulating levels of IL-1B”, the “circulating levels of TNFα” value (TNFα) was “prevented the increase in the circulating levels” and the IL-6 levels (IL-6) was “dramatic decrease in IL-6 levels”. For the same molecule, the leptin secretion (leptin) was “decrease in leptin secretion”, the adiponectin in circulation (adiponectin) was “tendency to prevent a fall of adiponectin” and the “aggregation in ultrafiltration operations” value [4] was “no visible aggregation”.
